± gives the uncertainty stated by the source.
assay: amyloid nucleation score (Sup35N fusion, yeast selection) (log enrichment); library NNK2; higher = more nucleation; inactive = no reads after selection
Procedure, shortened: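 Peptides of 20 random codons fused to Sup35N were expressed in psi-negative yeast, induced 24 hours with 100 μM copper sulfate, then grown 7 days at 30°C on medium lacking adenine and uracil. Input and output plasmid inserts were Illumina-sequenced. Nucleation score is the DiMSum log enrichment of output over input reads, centred on the mode score of non-aggregating sequences, excluding sequences with under 100 input reads. Random libraries had three technical output replicates.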

Substance	amyloid nucleation score
DSRCDRAPDCGMNHCIYILC	6.76 ± 0.082
SIGWRPPCLVFDVGWRREGQ	-0.109 ± 0.42
KLFRQQCDS	0.247 ± 0.8
FGGINIGCGQCLFVVR	8.503 ± 0.053
FRSVFDKFLRYVFSFDVY	-0.984 ± 0.76
RNHFLLCFLRCNEEYAQVRG	3.69 ± 0.059
YASISI	inactive
AGSLRR	1.51 ± 0.41
WNKLSLA	0.443 ± 0.49
GKGWKSVVYSNMGRVSGCCK	2.81 ± 0.12
LCNSYYFFDSCVIEPYIPLL	5.646 ± 0.054
YWSICPCCFLVSFSDTSWKG	8.138 ± 0.057
WSNGR	0.329 ± 0.44
EVHHNGM	0.367 ± 0.62
VVWWGVNR	0.091 ± 0.38
FFSFGCGSWRTVIVTSRSL	-0.299 ± 1
FVHVPPILGAAVTVRAASPK	0.284 ± 1.1
SNNAI	0.476 ± 0.56
ERSCSDIAGYPRPHGVQRNA	3.01 ± 0.081
HNSLMRMVWLNKHPK	-0.095 ± 0.8
DTVNWCDSGVP	-0.023 ± 0.65
GSSRLKGDGIVLVKCSWRYM	1.13 ± 0.38

Substance	amyloid nucleation score
TGGRNVHNCNNNHASSWPRC	-1.05 ± 0.76
TILCFCAC	4.86 ± 0.056
LSEGCSLSTSVSMT	-0.392 ± 0.44
NGGPHRPDSLVWYLEHKMRQ	inactive
RFGVSVTGDTSRCSGCGGAH	4.01 ± 0.089
HRSYCGFICASVLSAGPVHR	-0.31 ± 1.1
YPRALIHVWKKSLVHTSRCR	7.14 ± 0.079
FLIVPKILNICL	7.746 ± 0.077
NNVGWVLHDGRFFSVSHYIA	0.294 ± 1.1
SYVDNWNISRVYLRLTYSVY	-0.96 ± 0.49
SHTSCGMKVSLRICHSMGQR	6.434 ± 0.057
DNMSNYSGACLSNYL	-0.292 ± 0.56
YMYGVNNASSF	5.79 ± 0.054
TLSCSYVCAPTVYVQSSRPT	1.27 ± 0.18
GKSYVYIRLGIFSMWASHRR	2.72 ± 0.08
NKGVCDEVSVSSISVAIF	-0.093 ± 0.63
SMILT	-1.11 ± 1.1
LLNCNCIVV	8.569 ± 0.031
LGTSWHHRAKE	3.31 ± 0.086
MLLPLNYECGVQYS	-0.179 ± 0.37
FKSTYVHHYRVMPGSVVLLR	-1.2 ± 1.1
SYYGFLSFCSKTCMPLMWLE	-0.844 ± 0.54

Substance	amyloid nucleation score
DSPRRTFIVQASHFTVYLTR	8.111 ± 0.058
DNLVCCSCSHLIVWTLSVGA	9.548 ± 0.035
HVSKAVNLG	0.52 ± 0.56
PGSRTWFGTMLAPDTCLHEM	1.7 ± 0.16
SMATSSYMLSAMRTCTLRSV	-0.231 ± 0.63
TVSNR	-1.27 ± 0.37
KDLEFSISLMKVPNIWWHYR	1.04 ± 0.17
LIKLMGKSLTRDRY	-0.771 ± 1.1
SGSHVYFKSCTGLKLPIVLG	4.498 ± 0.04
YLRRGNKLCESTLVVTCTMV	-0.087 ± 1
IHICKQTCG	0.812 ± 0.3
AYMSYRAGMDRLQCDVS	-0.947 ± 1.1
NLVAMPDQVAGSTCRVCNNN	0.486 ± 0.51
GRCYDFCHFYKQGRYSLGWV	-1.06 ± 0.63
FSRYNVCYFRVAKGNARLPF	-0.541 ± 0.76
NLRNKIVGLTKGLVCRANVV	2.34 ± 0.091
VTVLTGVG	4.79 ± 0.058
PLWVEGFMCSNGMCILGRSG	1.77 ± 0.14
RRPKHYMAVMSESVGLQCRL	0.173 ± 0.37
ETKWPDHYK	0.515 ± 0.64
TGHWQLQNSSQA	0.841 ± 0.28
GNLDRYRYLETDKSGAMLGV	4.3 ± 0.064

Substance	amyloid nucleation score
RYIGMLRFVVCDYGLMIFWS	-0.394 ± 1.1
LDYLDSVSINGIVQFKQMVW	-0.285 ± 0.26
TSMVNSFYKTRGTIK	inactive
FFYRVPDITSDAGITQLLAQ	5.483 ± 0.048
QMISLYAKQGVFPFGLSCSC	2.02 ± 0.11
FVFELGKWHCELFWYELCLS	inactive
GFSLC	0.541 ± 0.66
FNVSYSISMMLKRGVCAHCW	6.038 ± 0.034
PSFFCKWKSLYPTVNVCVVN	-0.073 ± 0.49
LLERSRSSIMCTTNRSLELI	3.18 ± 0.055
QVGKQADFRVAWLRVIHVF	0.292 ± 0.56
VDYASGGARGFGMVLRAFLE	0.132 ± 0.42
LSWVRAIS	0.2 ± 0.38
PRWAKYYVLSRC	-1.6 ± 1.1
TMGYEFMQILLDLRNLSCSY	3.64 ± 0.097
DVLIRKWIIWDASNLQWMAI	0.144 ± 0.36
CQAYSSIRFEVL	inactive
WSYQYRLPILTTFSDFVWRK	-0.339 ± 0.28
SFPYNHFYMDYMPVRAPLVV	-0.153 ± 1.1
LGYDDGYVAGRGKADMFSLD	inactive
YEPRSNLCCIINTIKFPKTI	6.169 ± 0.031

— the supplement of paper PMC12042874
